From paper PMC4447404
Where “and” joins values, the source holds several entries; their conditions need not be identical. Equal entries are not always repeated.

Each substance was assayed on DnaA-his (Bacillus subtilis) (assay: IDAP-Seq (affinity pull-down)). Conditions: 550 nM DnaA, 40 mM HEPES-KOH pH 7.6, 150 mM K-glutamate, 2.5 mM ATP or ADP, 10 mM Mg acetate, 0.2 mM DTT, 50 ug/ml BSA, 0.1 mM EDTA, 20% glycerol, 4% sucrose, 0.2 mg/ml ….

Row | Substance | binding signal (fold ATP/ADP DNA recovered)
1 | yhdF internal | 24

Same assay, conditions: 40 mM HEPES-KOH pH 7.6, 150 mM K-glutamate, 2.5 mM ATP or ADP, 10 mM Mg acetate, 0.2 mM DTT, 50 ug/ml BSA, 0.1 mM EDTA, 20% glycerol, 4% sucrose, 0.2 mg/ml …

Row | Substance | Kd
2 | yutJ internal (peak 16) | 2500 nM and 2900 nM
3 | yqeG/sda upstream (peak 7) | 150 nM and 510 nM
4 | yydA upstream / yyzF downstream (peak 8) | 160 nM and 330 nM
5 | ywcI/vpr upstream (peak 3) | 130 nM and 170 nM
6 | yvmC/yvmB upstream (peak 14) | 2200 nM and 4400 nM
7 | yydH internal (peak 17) | 2400 nM and 4600 nM
8 | yhcN internal (peak 15) | 19400 nM and 6900 nM
9 | ynaI downstream / xynP upstream (peak 11) | 2000 nM and 3000 nM
10 | codV internal (peak 9) | 1100 nM and 1900 nM
11 | yhcA internal (peak 12) | 3600 nM and 2800 nM
12 | ggaA internal (peak 18) | 2700 nM and 4800 nM
13 | trmE upstream / jag downstream (peak 5) | 330 nM and 430 nM
14 | yopH internal (peak 19) | 4900 nM and 5000 nM
15 | rlmCD internal (peak 20) | 7500 nM and 6700 nM
16 | rplB internal (peak 10) | 1400 nM and 1200 nM
17 | oriC upstream of dnaA (peak 1) | 210 nM and 330 nM
18 | gcp/ydiF downstream (peak 4) | 150 nM and 330 nM
19 | oriC dnaA-dnaN (peak 2) | 160 nM and 300 nM
20 | yorF internal (peak 13) | 2000 nM and 3000 nM
21 | ywlC upstream / ywlB downstream (peak 6) | 250 nM and 450 nM
